Reference: patent US9260728B2, “Terpene synthases from Santalum” (UNIVERSITY OF BRITISH COLUMBIA, priority 2009, dated 2016)

Columns and labels:
[1] = GC-FID determination of reaction products of terpene synthases from FPP with magnesium or manganese; format: biochemical
Protocol: Enzyme assays for all recombinant proteins were done in triplicate using the GC vial method described by O'Maille et al. (Anal. Biochem. 335:[…] (2004). For enzyme assays where only product identification was needed, 10 μg of protein was used in a final volume of 500 μL of reaction buffer (25 mM HEPES, 10% glycerol, 5 mM DTT and 10 mM of either Mg^2+ or Mn^2+. Substrates (FPP and GPP) were added to a final reaction concentration of 100 μM. Vials were overlaid with 500 μL of hexane to trap volatile products and incubated at 30° C. for 2 h. Mixtures were vortexed for 1 min to extract all volatiles and the vials were centrifuged to separate the organic layer.
Product mixtures were analysed by GC-MS in scan mode for product identification. A standard containing the three santalenes and α-trans-bergamotene was prepared by flash chromatography of 2 mL of neat S. album oil over silica and eluted in hexane. A final yield of 25 mg was resuspended in EtOAc and purity was confirmed by GC-FID with conditions described below. All mass spectra were compared to the NIST 2005 library and the literature. Retention indices were determined for all compounds using an n-alkane standard and compared to the literature (R. P. Adams, “Identification of essential oil components by gas chromatography/mass spectrometry,” Allured Publishing Corporation, Carol Stream, Ill. (1995)).
GC-FID was performed on a Shimadzu GC2010 with a 30 m 0.25 mm ID, 0.25 μm film DB-WAX column with He as the carrier gas. Splitless injection (2 μL) was used for all analyses. Conditions were as follows: injector 200° C., detector 250° C., column flow rate 1 mL/min. Oven program: 40° C. for 3 min, then 8° C./min to 180° C., held 5 min, then 10° C./min to 220° C., held 10 min. Needle height was adjusted to only draw from the upper organic layer of all sample vials. GC-MS was performed on a Shimadzu GC2010 with the same DB-WAX column and using He as the carrier gas. Conditions were as follows: injector 200° C., MS interface 240° C., ion source 200° C. Oven program: 40° C. for 3 min, then 8° C./min to 180° C., held 5 min, then 10° C./min to 220° C., held 10 min. Solvent cut time was set to 5 min. For product identification, total ion monitoring was used, scanning from m/z 45 to m/z 300. For kinetic assays, single ion monitoring of the sesquiterpene base ions m/z 91, 93 and 94 were used. Likewise monoterpene base ions (m/z 69, 71 and 93) were monitored. An internal standard (isobutyl benzene, 30 μM) was added to the hexane used to overlay each reaction. Detector response factors were calculated based on the santalene standard prepared earlier and used to determine the product concentrations for kinetic analysis.

[2] = as above; format: biochemical; remark: listed apart in the source

B1: SspiSSy: santalene synthase from Santalum spicatum, gene SEQ ID NO:5, protein SEQ ID NO:6 (protein, listed as Santalum spicatum)
chain: MDSSTATATTAPFIDHTDHVNLKIDNDSSESRRMGNYKPSIWNYDFLQSLAIHHNIVEEKHLKLAEKLKGQVMSMFGAPMEPLAKLELVDVVQRLGLNHQFETEIKEALFSVYKDGSNGWWFGHLHATSLRFRLLRQCGLFIPQDVFKTFQSKTDEFDMKLCDNIKGLLSLYEASFLGWKGENILDEAKAFATKYLKNAWENISQKWLAKRVKHALALPLHWRVPRIEARWFIEAYEQEENMNPTLLKLAKLDFNMVQSIHQKEIGELARWWVTTGLDKLAFARNNLLQSYMWSCAIASDPKFKLARETIVEIGSVLTVVDDAYDVYGSMDELDHYTYSVERWSCVEIDKLPNTLKLIFMSMFNKTNEVGLRVQHERGYNGIPTFIKAWVEQCKAYQKEARWYHGGHTPPLEEYSLNGLVSIGFPLLLITGYIAIAENEAALDKVHPLPDLLHYSSLLSRLINDMGTSPDEMARGDNLKSIHCYMNETGASEEVAREHIKGIIEENWKILNQCCFDQSQFQEPFITFNLNSVRGSHFFYEFGDGFGVTDSWTKVDMKSVLIDPIPLGEE
modifications: SspiSSy Protein
E-β-farnesene among reaction products (GC-FID) ([1]; FPP Mg, mean): 2.2
Z-β-farnesene among reaction products (GC-FID) ([1]; FPP Mg, mean): 0.7
epi-β-santalene among reaction products (GC-FID) ([1]; FPP Mg, mean): 4.2
α-E-bergamotene among reaction products (GC-FID) ([1]; FPP Mg, mean): 19.2
α-santalene among reaction products (GC-FID) ([1]; FPP Mg, mean): 47.3
β-santalene among reaction products (GC-FID) ([1]; FPP Mg, mean): 26.3
E-β-farnesene among reaction products (GC-FID) ([1]; FPP Mg, replicate 1): 2.5
Z-β-farnesene among reaction products (GC-FID) ([1]; FPP Mg, replicate 1): 0.7
epi-β-santalene among reaction products (GC-FID) ([1]; FPP Mg, replicate 1): 4.6
α-E-bergamotene among reaction products (GC-FID) ([1]; FPP Mg, replicate 1): 19.6
α-santalene among reaction products (GC-FID) ([1]; FPP Mg, replicate 1): 46.3
β-santalene among reaction products (GC-FID) ([1]; FPP Mg, replicate 1): 26.4
E-β-farnesene among reaction products (GC-FID) ([1]; FPP Mg, replicate 2): 2.2
Z-β-farnesene among reaction products (GC-FID) ([1]; FPP Mg, replicate 2): 0.6
epi-β-santalene among reaction products (GC-FID) ([1]; FPP Mg, replicate 2): 4.2
α-E-bergamotene among reaction products (GC-FID) ([1]; FPP Mg, replicate 2): 19.2
α-santalene among reaction products (GC-FID) ([1]; FPP Mg, replicate 2): 47.4
β-santalene among reaction products (GC-FID) ([1]; FPP Mg, replicate 2): 26.4
E-β-farnesene among reaction products (GC-FID) ([1]; FPP Mg, replicate 3): 2.0
Z-β-farnesene among reaction products (GC-FID) ([1]; FPP Mg, replicate 3): 0.8
epi-β-santalene among reaction products (GC-FID) ([1]; FPP Mg, replicate 3): 4.0
α-E-bergamotene among reaction products (GC-FID) ([1]; FPP Mg, replicate 3): 18.9
α-santalene among reaction products (GC-FID) ([1]; FPP Mg, replicate 3): 48.1
β-santalene among reaction products (GC-FID) ([1]; FPP Mg, replicate 3): 26.3
E-β-farnesene among reaction products (GC-FID) ([1]; FPP Mn, mean): 8.2
Z-β-farnesene among reaction products (GC-FID) ([1]; FPP Mn, mean): 1.0
epi-β-santalene among reaction products (GC-FID) ([1]; FPP Mn, mean): 1.3
α-E-bergamotene among reaction products (GC-FID) ([1]; FPP Mn, mean): 78.9
α-santalene among reaction products (GC-FID) ([1]; FPP Mn, mean): 7.3
β-santalene among reaction products (GC-FID) ([1]; FPP Mn, mean): 3.4
E-β-farnesene among reaction products (GC-FID) ([1]; FPP Mn, replicate 1): 8.1
Z-β-farnesene among reaction products (GC-FID) ([1]; FPP Mn, replicate 1): 1.0
epi-β-santalene among reaction products (GC-FID) ([1]; FPP Mn, replicate 1): 1.4
α-E-bergamotene among reaction products (GC-FID) ([1]; FPP Mn, replicate 1): 79.0
α-santalene among reaction products (GC-FID) ([1]; FPP Mn, replicate 1): 7.2
β-santalene among reaction products (GC-FID) ([1]; FPP Mn, replicate 1): 3.3
E-β-farnesene among reaction products (GC-FID) ([1]; FPP Mn, replicate 2): 8.0
Z-β-farnesene among reaction products (GC-FID) ([1]; FPP Mn, replicate 2): 1.0
epi-β-santalene among reaction products (GC-FID) ([1]; FPP Mn, replicate 2): 1.7
α-E-bergamotene among reaction products (GC-FID) ([1]; FPP Mn, replicate 2): 78.6
α-santalene among reaction products (GC-FID) ([1]; FPP Mn, replicate 2): 7.4
β-santalene among reaction products (GC-FID) ([1]; FPP Mn, replicate 2): 3.4
E-β-farnesene among reaction products (GC-FID) ([1]; FPP Mn, replicate 3): 8.4
Z-β-farnesene among reaction products (GC-FID) ([1]; FPP Mn, replicate 3): 1.0
epi-β-santalene among reaction products (GC-FID) ([1]; FPP Mn, replicate 3): 0.7
α-E-bergamotene among reaction products (GC-FID) ([1]; FPP Mn, replicate 3): 79.1
α-santalene among reaction products (GC-FID) ([1]; FPP Mn, replicate 3): 7.3
β-santalene among reaction products (GC-FID) ([1]; FPP Mn, replicate 3): 3.5
Relative % composition in oil produced by enzyme: E-α-bergamotol ([1]; GC-FID): 19.2%
Relative % composition in oil produced by enzyme: β-santalol ([1]; GC-FID): 26.3%
Relative % composition in oil produced by enzyme: epi-β-santalol [2]: 4.2%
Relative % composition in oil produced by enzyme: α-santalol [2]: 47.3%
